Source: the supplement of paper PMC10724198
± gives the standard deviation of the averaged measurements.

tested on: Saccharomyces cerevisiae; assay: protein stability index of tFT-peptide fusion (C-terminal peptide) (PSI (0-1 scale)); higher = more stable (slower turnover); conditions: genetic background: wild type; temperature: 30 C
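Further: PSI is a weighted mean of sequencing reads over stability bins, variants kept only with over 10 reads, mCherry proximal and sfGFP distal, peptide attached via GGGS linker.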

Compared with MFTFIQRPVAQV, MGAAWNYANFGL is higher in protein stability index: 0.6357 ± 0.0054 for the first, 0.7011 ± 0.0059 for the second.

MGLVVGILVGHR and MGLYSNTRNWGS are within error of each other in protein stability index: 0.647 ± 0.098 for the first, 0.682 ± 0.034 for the second.

MKGELRHRWCPL and MKRLTCGGFNLE are within error of each other in protein stability index: 0.71 ± 0.046 for the first, 0.704 ± 0.03 for the second.

MKSRQKPESGPR and MLLSVDWAGDEI are within error of each other in protein stability index: 0.6899 ± 0.0056 for the first, 0.796 ± 0.11 for the second.

MLSFTQRYYSAI and MLSWKASWRQPV are within error of each other in protein stability index: 0.64 ± 0.03 for the first, 0.664 ± 0.021 for the second.

MPGYLIRPPVIS and MQEMLPSRPIRH are within error of each other in protein stability index: 0.709 ± 0.0078 for the first, 0.69 ± 0.029 for the second.

MQLREIIMIEKS and MQSRWAQVEGKE are within error of each other in protein stability index: 0.693 ± 0.043 for the first, 0.673 ± 0.055 for the second.

Going from MRSLLDPLSNSC to MSMVVCHGGGGL, the protein stability index falls from 0.7804 ± 0.0065 to 0.663 ± 0.017.

Compared with MSRPGEGSYIGD, MSSGGSIYMVRT is higher in protein stability index: 0.652 ± 0.017 for the first, 0.723 ± 0.018 for the second.

MTMGSIGNFDQG and MVARFGNEFMFL are within error of each other in protein stability index: 0.611 ± 0.073 for the first, 0.695 ± 0.057 for the second.

MVEFWDLPGRSC and MVGLTTEFGSDG are within error of each other in protein stability index: 0.744 ± 0.081 for the first, 0.667 ± 0.015 for the second.

MVSFEWCLARSY and MVTRSLLLLLHG are within error of each other in protein stability index: 0.501 ± 0.054 for the first, 0.599 ± 0.053 for the second.

MWRWRAHVDRFR and MYPAYNRVRFEL are within error of each other in protein stability index: 0.6831 ± 0.0058 for the first, 0.657 ± 0.032 for the second.

MYRSLPRLKQTY and NAGHTGPYADGN are within error of each other in protein stability index: 0.721 ± 0.031 for the first, 0.669 ± 0.043 for the second.

Going from NAYRLSCGDNTN to NCEVYVGLVLAD, the protein stability index falls from 0.683 ± 0.027 to 0.597 ± 0.028.

Compared with NDGLRRLICGGT, NDKPKTTQKRTP is higher in protein stability index: 0.68 ± 0.022 for the first, 0.718 ± 0.0092 for the second.

NDLYDVLKYLFN and NEGGGGRGETVE are within error of each other in protein stability index: 0.712 ± 0.086 for the first, 0.613 ± 0.021 for the second.

Going from NEIRNKETETVM to NEPEKGQRKRRE, the protein stability index rises from 0.665 ± 0.023 to 0.8051 ± 0.0073.

First: NFHVRFVPDGGR
Second: NFRHSVTTSEVN
The protein stability index of the first is lower: 0.67 ± 0.021 for the first, 0.737 ± 0.013 for the second.

NGCCLVHAETGP and NGILRGATYQDV are within error of each other in protein stability index: 0.676 ± 0.032 for the first, 0.77 ± 0.067 for the second.

NGLGKGKTKGEI and NGMVDDQSEVNR are within error of each other in protein stability index: 0.625 ± 0.1 for the first, 0.682 ± 0.074 for the second.

Going from NHRANSNPRLRY to NIAPPNHASIVL, the protein stability index falls from 0.731 ± 0.0095 to 0.695 ± 0.014.

NINNKRNHIHLK and NIRSRKYMLRKS are within error of each other in protein stability index: 0.648 ± 0.075 for the first, 0.744 ± 0.085 for the second.

NKKDHTLTKKRT and NKKFTKQTCKPK are within error of each other in protein stability index: 0.661 ± 0.063 for the first, 0.663 ± 0.0011 for the second.

Compared with NKKKYEIKLIME, NKKNKKRIGRNT is higher in protein stability index: 0.641 ± 0.06 for the first, 0.736 ± 0.034 for the second.

NKNTEMNKTQWR and NKRKKKRTEPQP are within error of each other in protein stability index: 0.702 ± 0.03 for the first, 0.661 ± 0.013 for the second.

NKTKKKKKKKRG and NKTRRCTAHVGG are within error of each other in protein stability index: 0.659 ± 0.061 for the first, 0.679 ± 0.054 for the second.

Compared with NKYRKNMKSSVP, NLGFTTSWSFDL is higher in protein stability index: 0.671 ± 0.019 for the first, 0.766 ± 0.066 for the second.

NLMTPAWTNFSS and NLRESRSLKGVI are within error of each other in protein stability index: 0.756 ± 0.077 for the first, 0.73 ± 0.016 for the second.

NLRSSTSKNNKR and NLTKTLNNDIIK are within error of each other in protein stability index: 0.659 ± 0.079 for the first, 0.68183 ± 0.00011 for the second.

Going from NLVSCFSSCGSV to NLYLEKLLHSEP, the protein stability index rises from 0.628 ± 0.028 to 0.715 ± 0.018.

NMGRCEGGKTAR and NMIIPEAVSLSL are within error of each other in protein stability index: 0.643 ± 0.016 for the first, 0.672 ± 0.026 for the second.

NMQRKSRNQIID and NNYRKKKHNYKK are within error of each other in protein stability index: 0.707 ± 0.074 for the first, 0.697 ± 0.011 for the second.

NPGGRPKNTINP and NPPPPAHYSRPP are within error of each other in protein stability index: 0.649 ± 0.11 for the first, 0.73 ± 0.031 for the second.

NPSRASAWPHVH and NRGHWECIRVQR are within error of each other in protein stability index: 0.607 ± 0.061 for the first, 0.582 ± 0.059 for the second.

NRLVQNRQVQLY and NRLVRLSQGGRE are within error of each other in protein stability index: 0.682 ± 0.014 for the first, 0.668 ± 0.019 for the second.

NRQNNYANDIQK and NRTPTPNQTPPT are within error of each other in protein stability index: 0.713 ± 0.045 for the first, 0.6798 ± 0.0048 for the second.

NRYRKNIKKRKK and NSIHRTRPKKII are within error of each other in protein stability index: 0.617 ± 0.028 for the first, 0.641 ± 0.0048 for the second.

NSRMSRYTTPYG and NTCGYGRAIKST are within error of each other in protein stability index: 0.68054 ± 0.00052 for the first, 0.687 ± 0.016 for the second.

Compared with NTDPAKRNHPRK, NTDSIKKQKKKK is lower in protein stability index: 0.71379 ± 0.00067 for the first, 0.675 ± 0.019 for the second.

NTTCGVEQKEDK and NVALPLSLLFGL are within error of each other in protein stability index: 0.649 ± 0.014 for the first, 0.633 ± 0.087 for the second.

NVGACRVMKTVY and NVLNLTDTKETL are within error of each other in protein stability index: 0.6876 ± 0.003 for the first, 0.652 ± 0.046 for the second.

Going from NYRGEKYDKREH to PAAPFFPSLRLL, the protein stability index rises from 0.569 ± 0.11 to 0.711 ± 0.03.

PAASPVDEKVRL and PAEGVVGGKCYV are within error of each other in protein stability index: 0.633 ± 0.016 for the first, 0.685 ± 0.092 for the second.

PAFCLTRAPSTQ and PAFPPPLPRRFL are within error of each other in protein stability index: 0.72 ± 0.071 for the first, 0.693 ± 0.23 for the second.

PAHLFVPSSLFR and PALPNNVQCDCE are within error of each other in protein stability index: 0.702 ± 0.042 for the first, 0.705 ± 0.073 for the second.

PALPPRLPPPPL and PALSVPPLLPPP are within error of each other in protein stability index: 0.602 ± 0.019 for the first, 0.604 ± 0.0071 for the second.

First: PAPAPPSHFQER
Second: PAPAVPPQTTPM
The protein stability index of the first is higher: 0.717 ± 0.043 for the first, 0.6693 ± 0.001 for the second.

Compared with PAPFPAPPTHGP, PAPHPPIPHQPP is lower in protein stability index: 0.7165 ± 0.0061 for the first, 0.532 ± 0.023 for the second.

PAPHPRLTPIFL and PAPPALPFHCPR are within error of each other in protein stability index: 0.749 ± 0.11 for the first, 0.654 ± 0.075 for the second.

First: PAPPLLPPPSPP
Second: PAPPPHSAPPLP
The protein stability index of the first is lower: 0.63 ± 0.027 for the first, 0.739 ± 0.024 for the second.

PAPPPPPPALLP and PAPPPSPPPRLA are within error of each other in protein stability index: 0.677 ± 0.067 for the first, 0.67 ± 0.075 for the second.

PAPTPAPNPNPH and PARGPTPHIVPR are within error of each other in protein stability index: 0.74 ± 0.11 for the first, 0.667 ± 0.053 for the second.

First: PARSAGPLNARS
Second: PASGHLPPPLSP
The protein stability index of the first is higher: 0.758 ± 0.013 for the first, 0.641 ± 0.064 for the second.

Going from PASLPPRAPPPL to PASRIGGALPGG, the protein stability index falls from 0.664 ± 0.019 to 0.604 ± 0.03.

PASYLSSPLRPP and PATKQFLLRGGR are within error of each other in protein stability index: 0.667 ± 0.046 for the first, 0.713 ± 0.0079 for the second.

PAVLLGPCARVP and PAVPPGGDPTCP are within error of each other in protein stability index: 0.699 ± 0.04 for the first, 0.689 ± 0.0085 for the second.

PCARLAGSPLPT and PCCYAGLHFFLG are within error of each other in protein stability index: 0.688 ± 0.021 for the first, 0.626 ± 0.068 for the second.

PCLLANFFFFPA and PCLSLSFPPLPH are within error of each other in protein stability index: 0.653 ± 0.09 for the first, 0.736 ± 0.034 for the second.

PCLSRPSTPPSS and PCPETPLLTRAA are within error of each other in protein stability index: 0.674 ± 0.036 for the first, 0.651 ± 0.0094 for the second.

Compared with PCPFSSPPPLTH, PCSPRLPPFPSP is lower in protein stability index: 0.763 ± 0.053 for the first, 0.683 ± 0.017 for the second.

PCTRIPPLDSPL and PDPHTLTPTGHP are within error of each other in protein stability index: 0.718 ± 0.058 for the first, 0.71 ± 0.026 for the second.

PDSAGAALSLSS and PDSIVACGPVGR are within error of each other in protein stability index: 0.695 ± 0.027 for the first, 0.702 ± 0.043 for the second.

PDTVRALMRGYK and PEGPGAGRGEHN are within error of each other in protein stability index: 0.721 ± 0.016 for the first, 0.686 ± 0.044 for the second.

PEHGPWLFKGFF and PEILSLDPLPSL are within error of each other in protein stability index: 0.653 ± 0.025 for the first, 0.662 ± 0.018 for the second.

PESGPVRLRTPP and PESPNCRRTRAL are within error of each other in protein stability index: 0.624 ± 0.029 for the first, 0.661 ± 0.031 for the second.

PFAHPPRLPLFP and PFAHSATFLSLG are within error of each other in protein stability index: 0.742 ± 0.096 for the first, 0.774 ± 0.052 for the second.

PFAPPPRPGPFP and PFARPPPSPSPR are within error of each other in protein stability index: 0.697 ± 0.085 for the first, 0.707 ± 0.012 for the second.

PFCLPRPVRGVL and PFCTRRSVRYRS are within error of each other in protein stability index: 0.728 ± 0.1 for the first, 0.719 ± 0.049 for the second.

Going from PFCVALVDVGFW to PFFFLPPSRPRP, the protein stability index rises from 0.564 ± 0.029 to 0.671 ± 0.023.

PFGPRLTQRSRP and PFHSPLMPAHSH are within error of each other in protein stability index: 0.697 ± 0.039 for the first, 0.764 ± 0.049 for the second.

PFIPRFFSPCPL and PFLGHCPPTPPP are within error of each other in protein stability index: 0.673 ± 0.018 for the first, 0.732 ± 0.044 for the second.

Compared with PFLLDSMRALGL, PFLLFVSSTCPL is lower in protein stability index: 0.737 ± 0.082 for the first, 0.605 ± 0.024 for the second.

PFPPHSPPSAPS and PFPQVPFPRLAY are within error of each other in protein stability index: 0.697 ± 0.0093 for the first, 0.681 ± 0.066 for the second.

PFPSYLSPLGPS and PFRFSPFPLPLP are within error of each other in protein stability index: 0.734 ± 0.037 for the first, 0.695 ± 0.023 for the second.

PFSIVRRSSFAP and PFSTVDLATAYP are within error of each other in protein stability index: 0.659 ± 0.082 for the first, 0.712 ± 0.017 for the second.

PFVFRPGPVPRV and PFWGKWVPSSYL are within error of each other in protein stability index: 0.643 ± 0.1 for the first, 0.7126 ± 0.0053 for the second.

PFYLPPSTPPLL and PGCLMGSRGFSN are within error of each other in protein stability index: 0.739 ± 0.0076 for the first, 0.785 ± 0.18 for the second.

PGDFSWAQCLFP and PGDSALVLVTPQ are within error of each other in protein stability index: 0.752 ± 0.048 for the first, 0.703 ± 0.069 for the second.

PGFEPHLKLCAA and PGGRTVLCGTVT are within error of each other in protein stability index: 0.654 ± 0.042 for the first, 0.651 ± 0.0044 for the second.
